The DeepSol protein solubility set

test: soluble on expression in E. coli; label from the status in PepcDB or PDB records

Row | Sequence | soluble on expression in E. coli
1 | MGSDKIHHHHHHMLEVPVDRPVEALTIALLRDVKHACAQLGAKFVLAGATARDILMWHLHDIRAPVATRDVDVAVCAVSWESHDALIELLVQTQRFRRHSKQQQKLLFKRSAEDYEGELDIVPFGQIEGPPGEIHWPPDGDIVMTVLGFQEAVDTAQPVSIGEGLVVPVVTLPAFVLLKLIAWKDRRLMKNTDSADLLFVLRNYIDAGNIERTYEQATDLLKAANFDAGLAAAGLLGRDVRGLAYPDTRAALRALLQSADAYETLRLDLQARAAMLLGGFIDDSDALLAAFARELLTEENGSLNGTGPQVGSTGARA | not soluble
2 | MLIMNIRKIDDYTYEIPREGDMIVHGIVYSTDKLFKNTVEDGSLNQVVNVAKLPGIVEASYAMPDIHLGYGFPIGGVAAFDYDEGIISPGGVGYDINCGVALLRTGMNYAQIKPRIKDITDYIFQEVPSGLTSRKGFPVNQNDLQEILTSGLKWAVSRGLATELDMINTEDNGSIESHGTHVSKQAMQRGLSQIGTLGAGNHFLEIQRVSDIFDEDVARKFGLYKDEVTVMIHTGSRGLGHQVATDYLRELRESRESIKTSDPELISIHVKSKIGENYLDAMKSAANFAFVNRQMAIYGVRKVFKKFFDVEPELVYSLAHNIAKVEDHIVEGKTKSLIVHRKGATRAFGPGKSSPPFEDTGHPVLIPGSMGTASYVLVGVKENLIKSFGTACHGSGRVLSRNQAIKKFSSIVDRELEEKDVYARPATKRVLYEEAPGSYKNVDEVVAAVEGAHLARSIVRMVPLAVVKGLEHHHHHH | not soluble
3 | RGKGKDIVMNPLSFGEFVKVARPDIYSKLPRIKRITKVKECSKLRPWREELYDLFILYLKSGGFPRAVKDILEGESIAELHEPTWNSIQKFYGPL | not soluble
4 | MAHHHHHHMMSTASKILAILREAMRKRSLSALIIPSSDPHNSEYVKDEYKCRAYITNFKGSAGTCLITMNEAYLWTDGRYWLEASQSLYPEWTLMKDGHPDVPRLENWIQLNLGSDVLVGMNNHLSTVAEWERRRKMFNLVSVPEMVQPLMPLVENPVSKLYARPEEFCGMRCGEKAAALMEEMERQKCDALVLSALDEVAWLTNLRGSDVPFNPVFYAYGVVRCCSPPKVHLFVDAVMSEEQGPSLELHPYTALESYLRTIPAGTTFLVDEYQTSQWLFTLLESLGMRIKGVACGPAQKLKAVKNAVEIEGFRRCHVRDGVALTRYLAWLHDTVAVKGDTSVTEYSAAQRLEDFRREGEHFVQLSFSTISSVGPNAAIVHYVAPREGSATIVPDQLYLVDSGAQYLDGTTDVTRTVCFREPGDKEREAYTLVLKGNLALHSAVWPTGTSGHSLDVLARAALWKCGLNYAHGTGHGVGSFLNVHEGPQGIGLRPTPTEATLAAGMVMSNEPGYYKDGEFGIRIENLELVVDVATKHSKKGFLTFDTLTMVPLCRELIDVSALTEAERLQVNAYQQTVRETLLPHLRRCNDSCAIAYLEHHTATL | soluble
5 | MAHHHHHHMESKICDPIGLDKNKFRKVEEENEENSKIVENGQMTYNDDLEMFTTIQLNQEIDIRKNPFPLHMINQKNDIPLCAQEFSKLTDPLYIKKICLEKVHDWSRCNEDDVCVNQILSGLTNQLFEVSIKEDTAIEYRITRRHVLFRIYGKDVDALYNPLSEFEVYKTMSKYRIAPLLLNTFDGGRIEEWLYGDPLSIDDLKNKSILVGIANVLGKFHTLSRKRHLPEHWDKTPCVFKMMDRWRLAVSNYKNLDKVTLDINKYIQESHKFLKFIKIYTQIENIANDIVFCHNDLQENNIMNTNKCLRLIDFEYSGYNFLSADIANFFIETTIDYSYNAYPFFIINKKNYISYESRILFVTTYLSKYLDDSTAASDQDIIDQFLEAIEVQALGLHLIWAFWSIIRGYQTKSYNEFDFFLYAKERLKMYDEQKQYLMSKNIIKDYDD | soluble
6 | MGSDKIHHHHHHMKKGILIETDNVTRLRAAVKQAEDTERGRPGMVAVWGEAGAGKTIAAHSLYAQRGGVFLRAMEGMSQHAFLQELCWEVKGTRPHGSHRCRADILRALEEEPATVYVDEADRLDLRRLEDLRDIHDITGCPVVLIGEQHLPGKLAERTRIDDRIPEEYRVPFSGITPRDVSLFALEAAEIVLTPGAAGLIHKQAKGNFRRIHNLMLSVESAARAHDTTEVDEALVRAAMPAARSSASRAPRRGQHA | not soluble
7 | MLQLTHVTLKTRQVILQDVDFTFKKGRVYGLLAINGSGKTTLFRAISNLIPISSGNIAAPPSLFYYESIEWLDGNLSGMDYLRLIKNIWKSGLNLRDEIAYWEMSDYISLPIRKYSLGMKQRLVIAMYFLSQAKCWLMDEITNGLDEYYRQKFFDRLAQIDRQEQLVLLSSHYKEELVDVCDRVVTIHQGQIEEV | not soluble
